Laboratory results published in patent publication US20160046713A1 (INNATE PHARMA, published 2016).

What was measured:
[1] = molecular target: T1, human KIR3DS1 (CD158e2) on cells (human, UniProt P43629 22-381); experiment: flow cytometry with AZ158-PE on healthy donor PBMC gated on CD3+ T lymphocytes
T1 construct: Present on donor NK and T cells

[2] = molecular target: T2, human KIR3DL1 (CD158e1) on cells (human, UniProt P43629 22-444); experiment: two colour immunofluorescence on polyclonal NK cell populations and clones
T2 construct: Present on donor NK and T cells
Text: mAbs were generated by immunizing 5 week old Balb C mice with polyclonal IL-2 activated NK population. […] The reactivity of AZ158 was further analyzed on NK cell populations and clones in combination with additional antibodies, including EB6 ([…], CD158a), GL183 (anti-p58.2/50.2, CD158b), PAX180 (anti-p50.3) and FES172 (anti-p50.3), as well as Z27 and Q66, and it was observed that AZ158 reacted with the same cell subset stained by the anti-KIR3DL1 and anti-KIR3DL2 mAbs. Similar results were also observed using a panel of NK cell clones expressing different HLA class I specific NK receptors.

[3] = molecular target: T3, KIR3DL2 domain 2 construct (V5-tagged, CD24-GPI anchored) on HEK-293T/17 cells (human, UniProt P43630 239-340); experiment: flow cytometry on transfected HEK-293T/17 cells, goat anti-human-PE detection
T3 construct: also called pcDNA3.1/KIR3DL2 domain 2; KIR3DL2 extracellular domain 2
Description: (§1) Transfections were performed using 5 μg of the different pcDNA3.1/KIR3DL2 domain 0, pcDNA3.1/KIR3DL2 domain 1 or pcDNA3.1/KIR3DL2 domain 2 constructs using Lipofectamine 2000 according to manufacturer instructions. To ensure DNA purity for transfection, Maxi-prep endotoxin free kit from Qiagen was used. The Lipofectamine/DNA ratio used was fixed at 2/1. Cells were harvested 48 hours after transfection for flow cytometry experiments.
(§2) Cells were harvested and stained in PBS 1×/BSA 0.2%/EDTA 2 mM buffer during 1H at 4° C. using 5 μg/ml of chiAZ158 antibody. After two washes in staining buffer, cells were stained for 30 min at 4° C. with anti-V5 antibody FITC (0.1 μl per well) and goat anti-human (H+L)-PE antibodies (1/200). After two washes, stainings were acquired on a BD FACS Canto II and analyzed using the FlowJo software.
(§3) Results are shown in FIGS. 7-10, with V5-FITC indicated on the y-axis and chAZ158-GAH-PE on the x-axis. […] No binding of the chiAZ158 antibody could be detected on KIR3DL2 domain 1 (FIG. 9) or domain 2 (FIG. 10). Therefore, it can be concluded from this flow cytometry experiment that the chAZ158 antibody binds to the KIR3DL2 extracellular domain 0 but not to domains 1 and 2.

[4] = molecular target: T4, KIR3DL2 domain 1 construct (V5-tagged, CD24-GPI anchored) on HEK-293T/17 cells (human, UniProt P43630 139-238); experiment: as above
T4 construct: also called pcDNA3.1/KIR3DL2 domain 1; KIR3DL2 extracellular domain 1
T4 sequence: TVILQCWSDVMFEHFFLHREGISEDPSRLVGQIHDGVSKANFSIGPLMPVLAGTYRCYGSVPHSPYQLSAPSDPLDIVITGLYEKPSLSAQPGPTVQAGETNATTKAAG
Description: as §1, §2, §3

[5] = molecular target: T5, KIR3DL1 recombinant protein (R&D systems) (Homo sapiens (Human), UniProt P43629 22-340); experiment: SPR (Biacore T100), receptor immobilized on chip, antibody injected at 12 µg/ml
T5 construct: Bought protein; also called KIR3DL1 chip; immobilized KIR3DL1
Description: The binding of chimeric AZ158 (“chAZ158”, see Example 3) to KIR3DL2 and KIR3DL1 recombinant proteins (R&D systems) was analyzed by Surface Plasmon Resonance (SPR) using a Biacore T100 apparatus. […] Antibody was injected at a constant concentration of 12 μg/ml over the KIR3DL2 and KIR3DL1 flow-cells. Background signals were subtracted online by co-injecting onto the reference flow cell (dextran alone). Sensorgrams are representative of three independent experiments.

T2 sequence (P43629 22-444 limits assumed): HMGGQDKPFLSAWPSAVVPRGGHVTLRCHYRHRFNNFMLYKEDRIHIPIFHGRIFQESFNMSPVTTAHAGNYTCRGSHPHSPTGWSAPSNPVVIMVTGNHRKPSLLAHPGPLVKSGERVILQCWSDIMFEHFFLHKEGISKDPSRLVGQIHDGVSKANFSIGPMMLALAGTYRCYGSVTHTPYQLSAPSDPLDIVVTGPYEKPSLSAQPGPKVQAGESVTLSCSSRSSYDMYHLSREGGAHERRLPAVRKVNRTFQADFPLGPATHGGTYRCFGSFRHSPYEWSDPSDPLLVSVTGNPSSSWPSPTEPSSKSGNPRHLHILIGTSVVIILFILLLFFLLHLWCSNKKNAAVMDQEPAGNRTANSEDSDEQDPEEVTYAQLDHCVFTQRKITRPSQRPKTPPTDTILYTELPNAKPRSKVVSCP
T3 sequence (P43630 other isoform, or with tags, fused parts or gaps limits assumed): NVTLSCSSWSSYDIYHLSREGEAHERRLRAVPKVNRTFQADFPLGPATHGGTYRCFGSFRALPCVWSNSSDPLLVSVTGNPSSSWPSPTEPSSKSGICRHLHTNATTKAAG
T5 sequence (P43629 22-340 limits assumed): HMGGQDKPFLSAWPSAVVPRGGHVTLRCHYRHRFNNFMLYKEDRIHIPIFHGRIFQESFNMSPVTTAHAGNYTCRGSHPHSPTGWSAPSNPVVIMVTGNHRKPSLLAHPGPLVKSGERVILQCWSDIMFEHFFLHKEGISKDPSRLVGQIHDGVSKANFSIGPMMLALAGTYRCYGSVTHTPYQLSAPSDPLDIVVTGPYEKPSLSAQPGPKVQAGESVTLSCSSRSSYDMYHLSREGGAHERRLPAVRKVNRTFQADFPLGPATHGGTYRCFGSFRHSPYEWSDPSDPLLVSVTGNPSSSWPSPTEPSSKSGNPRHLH
T1 sequence (P43629 other isoform, or with tags, fused parts or gaps limits assumed): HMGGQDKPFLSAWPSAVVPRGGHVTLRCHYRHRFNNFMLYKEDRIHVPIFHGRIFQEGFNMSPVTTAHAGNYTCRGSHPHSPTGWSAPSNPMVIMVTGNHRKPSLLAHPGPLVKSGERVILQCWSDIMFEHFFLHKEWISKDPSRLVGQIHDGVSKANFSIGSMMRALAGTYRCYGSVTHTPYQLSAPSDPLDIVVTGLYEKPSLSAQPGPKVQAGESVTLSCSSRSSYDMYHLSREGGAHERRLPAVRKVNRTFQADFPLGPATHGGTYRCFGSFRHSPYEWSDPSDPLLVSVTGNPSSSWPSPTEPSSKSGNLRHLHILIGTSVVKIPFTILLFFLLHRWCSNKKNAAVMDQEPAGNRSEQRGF

B1: AZ158 (murine monoclonal antibody) (antibody, mouse IgG2b, V domains shown)
VH: QVQLKESGPGLVAPSQSLSITCTVSGFSLTSFGVHWVRQPPGKGLEWLGVIWAGGSTNYNSALMSRLSISKDNSKSQVFLKMNSLQNDDTAMYYCARGNSNHYVSSFYYFDYWGQGTTLTVSS
VL: DIQMTQSPSSLSASLGGKVTITCKASQDINKYIAWYQHKPGKGPRLLIHYTSTLQPGIPSRFSGSGSGRDYSFSISNLEPEDITTYYCLQYDNLWTFGGGTKLEIK
notes: also called mAb AZ158; AZ158-PE
- binding result [1]: binds
- binding result [2]: binds

B2: chAZ158 (chimeric AZ158, human IgG1-kappa, with the MKV6-derived kappa chain) (antibody, V domains shown)
VH: QVQLKESGPGLVAPSQSLSITCTVSGFSLTSFGVHWVRQPPGKGLEWLGVIWAGGSTNYNSALMSRLSISKDNSKSQVFLKMNSLQNDDTAMYYCARGNSNHYVSSFYYFDYWGQGTTLTVSS
VL: DIQMTQSPSSLSASLGGKVTITCKASQDINKYIAWYQHKPGKGPRLLIHYTSTLQPGIPSRFSGSGSGRDYSFSISNLEPEDITTYYCLQYDNLWTFGGGTKLEIKR
notes: also called chiAZ158; AZ158 chimeric antibody
- binding result [3]: no binding (tested: 5 µg/ml)
- binding result [4]: no binding (tested: 5 µg/ml)
- binding result [5]: binds
